Experimental data published in article PMC5510004, “Recruitment and positioning determine the specific role of the XPF‐ERCC1 endonuclease in interstrand crosslink repair”.

Biological target: T1, XPF deltaNSGW;ERCC1 wild type (hsERCC1) (Xenopus laevis;Homo sapiens?, UniProt A0A8J0PXV9;P07992 1-897;1-297, del312-315|)
T1 sequence 1: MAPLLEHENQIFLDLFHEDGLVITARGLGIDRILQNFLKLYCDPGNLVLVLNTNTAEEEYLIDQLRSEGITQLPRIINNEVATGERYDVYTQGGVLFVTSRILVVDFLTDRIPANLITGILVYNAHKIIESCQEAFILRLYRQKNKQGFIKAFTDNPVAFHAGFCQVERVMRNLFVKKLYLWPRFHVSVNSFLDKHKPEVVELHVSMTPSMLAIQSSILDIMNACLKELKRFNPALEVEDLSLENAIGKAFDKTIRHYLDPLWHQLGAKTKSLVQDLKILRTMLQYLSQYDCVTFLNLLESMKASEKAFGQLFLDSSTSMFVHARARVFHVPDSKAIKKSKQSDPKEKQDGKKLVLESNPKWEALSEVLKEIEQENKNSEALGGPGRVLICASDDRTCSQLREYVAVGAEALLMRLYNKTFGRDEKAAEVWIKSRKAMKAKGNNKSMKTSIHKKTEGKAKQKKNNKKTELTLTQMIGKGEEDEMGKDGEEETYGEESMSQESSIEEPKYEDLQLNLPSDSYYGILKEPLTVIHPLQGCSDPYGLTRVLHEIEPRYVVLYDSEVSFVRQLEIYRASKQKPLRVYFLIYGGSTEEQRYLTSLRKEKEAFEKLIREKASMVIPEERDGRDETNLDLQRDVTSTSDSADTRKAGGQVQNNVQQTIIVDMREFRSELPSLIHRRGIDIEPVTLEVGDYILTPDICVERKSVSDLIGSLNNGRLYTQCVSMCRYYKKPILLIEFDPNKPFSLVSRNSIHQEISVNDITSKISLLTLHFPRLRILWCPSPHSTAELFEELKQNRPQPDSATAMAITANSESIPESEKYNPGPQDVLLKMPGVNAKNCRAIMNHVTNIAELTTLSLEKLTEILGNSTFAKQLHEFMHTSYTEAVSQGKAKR
T1 sequence 2: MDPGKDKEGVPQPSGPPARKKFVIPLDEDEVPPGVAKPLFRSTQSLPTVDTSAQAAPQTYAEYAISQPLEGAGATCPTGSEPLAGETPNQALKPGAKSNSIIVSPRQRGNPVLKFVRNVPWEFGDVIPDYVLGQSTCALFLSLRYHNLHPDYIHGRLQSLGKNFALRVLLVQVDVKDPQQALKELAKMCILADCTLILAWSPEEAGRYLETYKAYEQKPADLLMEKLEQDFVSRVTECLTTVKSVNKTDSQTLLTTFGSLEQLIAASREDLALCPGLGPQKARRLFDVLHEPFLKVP
Assay: fluorescence anisotropy; 2 mM Ca2+; comparable to wild type; 25 mM Hepes pH 8.0, 15% glycerol, 0.1 mg/ml BSA, 2 mM CaCl2, 10 nM DNA, 1 h at room temperature
Details: protein: recombinant;recombinant; tags: FLAG;His; copies: 1;1; label: 5'-FAM on F1; three strands 1:1:1

B1: 3' flap DNA substrate (F1+F2+F3) (dsDNA)
DNA 1: CGCGATGCGGATCCAA
DNA 2: CCTAGACTTAAGAGGCCAGACTTGGATCCGCATCGC
DNA 3: GGCCTCTTAAGTCTAGG
B1: binds.
